Data reported in patent US20160289747, “DETECTION OF NUCLEIC ACIDS BY STRAND INVASION BASED AMPLIFICATION” (ORION DIAGNOSTICA OY, published 2016).

How the values were obtained:
[1] = molecular target: T1, gp32 single-stranded DNA binding protein (Enterobacteria phage T4, UniProt P03695 P03695:1-301); assay: fluorescence dequenching; 0.25 mg/ml gp32, Mg, K acetate; details: tags: New England Biolabs; label: fluorophore and quencher
T1 sequence: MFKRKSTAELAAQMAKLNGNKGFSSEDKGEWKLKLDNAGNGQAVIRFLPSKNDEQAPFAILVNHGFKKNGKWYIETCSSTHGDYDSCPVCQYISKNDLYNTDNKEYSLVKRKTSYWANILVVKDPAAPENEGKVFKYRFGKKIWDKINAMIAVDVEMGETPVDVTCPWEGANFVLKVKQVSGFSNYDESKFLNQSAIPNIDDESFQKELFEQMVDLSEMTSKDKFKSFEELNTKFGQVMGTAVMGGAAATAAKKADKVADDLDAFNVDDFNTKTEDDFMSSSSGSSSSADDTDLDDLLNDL
Method: (§1) The effect of the single-strand binding protein, bacteriophage T4 gp32 (New England Biolabs), on signal from the same oligonucleotide probes used with UvsX was also elucidated. Similar concentrations of oligonucleotide probes to those used with UvsX were incubated in the presence or absence of 0.25 mg/ml of gp32 and 200 nM complementary template ((SEQ ID NO: 34 for probes with SEQ ID NO 1-8 or SEQ ID NO: 44 for probes with SEQ ID NO: 9 or 10) in a buffer containing 20 mM Tris-acetate pH 7.9, 50 mM potassium acetate, 10 mM Magnesium Acetate and 1 mM DTT.

[2] = molecular target: T2, UvsX recombinase (Enterobacteria phage T4, UniProt P04529 P04529:1-391); assay: fluorescence dequenching; 5 uM UvsX, Mg, ATP, 40 C; details: label: fluorophore and quencher
T2 sequence (P04529 whole entry, one chain of several): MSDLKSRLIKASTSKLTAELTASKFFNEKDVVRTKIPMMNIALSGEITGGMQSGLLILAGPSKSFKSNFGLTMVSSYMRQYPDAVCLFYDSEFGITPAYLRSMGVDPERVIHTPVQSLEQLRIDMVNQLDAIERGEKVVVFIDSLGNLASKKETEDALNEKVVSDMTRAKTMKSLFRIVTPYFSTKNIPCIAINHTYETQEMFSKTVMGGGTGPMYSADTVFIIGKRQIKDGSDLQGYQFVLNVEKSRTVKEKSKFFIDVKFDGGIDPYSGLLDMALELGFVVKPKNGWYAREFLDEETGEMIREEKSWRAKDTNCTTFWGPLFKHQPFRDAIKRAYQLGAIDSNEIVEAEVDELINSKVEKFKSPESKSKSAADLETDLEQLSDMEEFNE
Method: (§2) The oligonucleotide probes were incubated in the presence or absence of 200 nM complementary template (SEQ ID NO: 34 for probes with SEQ ID NO 1-8, or SEQ ID NO: 44 for probes with SEQ ID NO 9 or 10) and 5 μM UvsX in buffer containing 20 mM Tris-acetate pH 8.0, 10 mM Magnesium acetate, 2 mM ATP, 60 mM Tris-Phosphocreatine and 0.025 U/μl Creatine Kinase. Fluorescence was measured after 20 minutes incubation at 40 degrees centigrade.

[3] = molecular target: T3, RecA (Escherichia coli, UniProt P0A7G6 P0A7G6:2-353); assay: fluorescence increase, less than UvsX; Mg, ATP; details: tags: New England Biolabs; label: fluorophore and quencher
T3 sequence (P0A7G6 2-353, one chain of several): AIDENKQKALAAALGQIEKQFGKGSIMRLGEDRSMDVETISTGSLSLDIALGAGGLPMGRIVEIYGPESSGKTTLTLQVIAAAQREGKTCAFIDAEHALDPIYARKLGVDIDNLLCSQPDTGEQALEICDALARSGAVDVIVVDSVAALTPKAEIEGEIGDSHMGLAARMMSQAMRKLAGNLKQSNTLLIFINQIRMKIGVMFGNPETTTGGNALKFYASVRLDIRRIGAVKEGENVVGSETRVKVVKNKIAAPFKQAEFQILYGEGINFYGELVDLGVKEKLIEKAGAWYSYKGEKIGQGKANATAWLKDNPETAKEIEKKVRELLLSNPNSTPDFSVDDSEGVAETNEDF
Method: (§3) The effect of Escherichia coli recombinase, RecA (New England Biolabs) on signal from oligonucleotide probes was also elucidated (FIG. 1d). Similar concentrations of oligonucleotide probes to those used in FIGS. 1a and 1b were incubated in the presence or absence of 100 μg/ml of RecA in a buffer containing 70 mM Tris-HCl pH 7.6.10 mM MgCl₂, 5 mM DTT and 10 mM ATP. […] However, the increase was not as high as that seen with T4 UvsX.

[4] = molecular target: T2, UvsX recombinase; assay: probe remained quenched; Mg, ATP, 40 C; details: label: fluorophore and quencher
Method: as §2

[5] = molecular target: T1, gp32 single-stranded DNA binding protein; assay: little or no fluorescence increase; details: tags: New England Biolabs; label: fluorophore and quencher
Method: as §1

[6] = molecular target: T3, RecA; assay: no significant fluorescence increase; Mg, ATP; details: tags: New England Biolabs; label: fluorophore and quencher
Method: as §3

Does AGCCGATGACTAATGC (ssDNA) [DNA 16] bind [1]?
Result: binds

Does AGCCGATGACTAATGC (ssDNA) [DNA 16] bind [2]?
Result: binds

Does ACGAAAGCCGATGACTAATGC (ssDNA) [DNA 21] bind [3]?
Result: binds

Does ACGAAAGCCGATGACTAATGC (ssDNA) [DNA 21] bind [1]?
Result: binds

Does ACGAAAGCCGATGACTAATGC (ssDNA) [DNA 21] bind [2]?
Result: binds

Which results are given for AGCCGAUGACUAAUGC (ssRNA) [RNA 16]?
binding result [4]: no binding; binding result [5]: no binding

What does the source list for ACGAAAGCCGAUGACUAAUGC (ssRNA) [RNA 21]?
binding result [4]: no binding; binding result [5]: no binding; binding result [6]: no binding

Does AGCCGAUGACUAAUGC (ssRNA, 2'-OMe) [2'-O-methyl RNA 16] bind [4]?
Result: no binding

Does AGCCGAUGACUAAUGC (ssRNA, 2'-OMe) [2'-O-methyl RNA 16] bind [5]?
Result: no binding

Does ACGAAAGCCGAUGACUAAUGC (ssRNA, 2'-OMe) [2'-O-methyl RNA 21] bind [4]?
Result: no binding

Does ACGAAAGCCGAUGACUAAUGC (ssRNA, 2'-OMe) [2'-O-methyl RNA 21] bind [5]?
Result: no binding

Does ACGAAAGCCGAUGACUAAUGC (ssRNA, 2'-OMe) [2'-O-methyl RNA 21] bind [6]?
Result: no binding

Which results are given for AGCCGAUGACUAAUGC (ssRNA, 2'-F) [2'-fluoro RNA 16]?
binding result [4]: no binding; binding result [5]: no binding

Does ACGAAAGCCGAUGACUAAUGC (ssRNA, 2'-F) [2'-fluoro RNA 21] bind [4]?
Result: no binding

Does ACGAAAGCCGAUGACUAAUGC (ssRNA, 2'-F) [2'-fluoro RNA 21] bind [5]?
Result: no binding

Does ACGAAAGCCGAUGACUAAUGC (ssRNA, 2'-F) [2'-fluoro RNA 21] bind [6]?
Result: no binding

Does AGUUGAUGUGUA (XNA, LNA) [LNA 12] bind [4]?
Result: no binding

Does AGUUGAUGUGUA (XNA, LNA) [LNA 12] bind [5]?
Result: no binding

Does AGUUGAUGUGUA (XNA, LNA) [LNA 12] bind [6]?
Result: no binding
